The supplement of paper PMC10724198
± gives the standard deviation of the averaged measurements.

System: Saccharomyces cerevisiae
Assay: protein stability index of tFT-peptide fusion (C-terminal peptide) (PSI (0-1 scale)); higher = more stable (slower turnover)
Conditions: temperature: 30 C
Description: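 MPS profiling in S. cerevisiae of the yeast C-terminome library: the last 12 aa of each annotated ORF are fused to the C-terminus of a sfGFP-mCherry timer, after a GGGS linker. Cells are FACS-sorted into 8 mCherry/sfGFP bins and deep-sequenced. PSI runs from 0 (unstable) to 1 (stable); wild type and das1Δ backgrounds, two technical replicates each.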

[1] = genetic background: das1 deletion

Sequence	protein stability index [1]	protein stability index (genetic background: wild type)
SFDDGRVKRQRT [IOC3 C-terminal 12 aa]	0.69 ± 0.014	0.715 ± 0.075
HLAQMKMEQLLK [APQ12 C-terminal 12 aa]	0.678 ± 0.015	0.67 ± 0.014
KQLGSSHNYTVN [SKG6 C-terminal 12 aa]	0.695 ± 0.019	0.696 ± 0.0079
QVLGTEEPTVRT [PGM2 C-terminal 12 aa]	0.696 ± 0.046	0.6625 ± 0.0017
AGIHPDRAKLLK [NOP6 C-terminal 12 aa]	0.68 ± 0.013	0.6934 ± 0.0056
ETIWTEWHNLKK [DIG2 C-terminal 12 aa]	0.726 ± 0.059	0.686 ± 0.0099
PRRSDLRPEFAE [VMA9 C-terminal 12 aa]	0.672 ± 0.022	0.665 ± 0.018
HERKRNKVLNTT [CMR3 C-terminal 12 aa]	0.704 ± 0.021	0.661 ± 0.043
TGTSNSVLVIIT [YPL136W C-terminal 12 aa]	0.677 ± 0.013	0.684 ± 0.033
ARVASQLGQKKK [PRO3 C-terminal 12 aa]	0.6735 ± 0.0064	0.684 ± 0.014
YANLLYKFWNDQ [PCL7 C-terminal 12 aa]	0.735 ± 0.011	0.672 ± 0.021
RELGFLFGLNAL [ULS1 C-terminal 12 aa]	0.751 ± 0.011	0.6855 ± 0.0018
TQKKVDQRWKKH [SEN54 C-terminal 12 aa]	0.692 ± 0.016	0.737 ± 0.082
KLVDVRKVYYSS [MRPS5 C-terminal 12 aa]	0.7071 ± 0.0029	0.6234 ± 0.0043
YRDDPNQKNYKD [MSS4 C-terminal 12 aa]	0.6905 ± 0.0037	0.749 ± 0.081
YSINPDEIELDI [SYF1 C-terminal 12 aa]	0.707 ± 0.025	0.698 ± 0.029
LMNAQSNETKLN [PTC6 C-terminal 12 aa]	0.7111 ± 0.0056	0.692 ± 0.033
DYKTKRNPSVLH [ISU2 C-terminal 12 aa]	0.6878 ± 0.0024	0.7106 ± 0.0056
MVTSIRSTPNYI [MED6 C-terminal 12 aa]	0.694 ± 0.021	0.722 ± 0.051
FEFEFFESCYNA [PET18 C-terminal 12 aa]	0.744 ± 0.019	0.744 ± 0.038
CTSCGYKFRTNN [RPA12 C-terminal 12 aa]	0.7397 ± 0.0049	0.2522 ± 0.002

Sequence	protein stability index [1]	protein stability index (genetic background: wild type)
LDMAVIDNTTHN [SDO1 C-terminal 12 aa]	0.712 ± 0.026	0.682 ± 0.016
ARTSDELQFTLP [MPT5 C-terminal 12 aa]	0.7165 ± 0.0027	0.6868 ± 0.0057
QRRTSLDYGGYF [TAF3 C-terminal 12 aa]	0.708 ± 0.02	0.725 ± 0.011
FGNDMVINFETD [UTP22 C-terminal 12 aa]	0.7438 ± 0.0026	0.731 ± 0.12
SSSSFISYPPQR [MAD3 C-terminal 12 aa]	0.728 ± 0.019	0.6977 ± 0.0019
LEELDIEEEYSD [ACL4 C-terminal 12 aa]	0.687 ± 0.059	0.673 ± 0.0086
DWESNQAKWIYE [YNK1 C-terminal 12 aa]	0.752 ± 0.034	0.718 ± 0.029
EEEEEEGKEGDA [SCT1 C-terminal 12 aa]	0.684 ± 0.012	0.697 ± 0.0061
LRKNRSLDERYF [YML057C-A C-terminal 12 aa]	0.7089 ± 0.0023	0.6568 ± 0.0029
KHGVSAVKRYLR [CBP1 C-terminal 12 aa]	0.6765 ± 0.0054	0.68 ± 0.0089
IVLPMIKDYLFS [HLJ1 C-terminal 12 aa]	0.678 ± 0.018	0.702 ± 0.0079
TEPVKQVLGNKE [NMA1 C-terminal 12 aa]	0.689 ± 0.012	0.675 ± 0.014
IGDFFKNLNMAK [NUP159 C-terminal 12 aa]	0.715 ± 0.026	0.743 ± 0.054
AKPKYEKILIDN [RTC2 C-terminal 12 aa]	0.703 ± 0.011	0.666 ± 0.035
ARLLRFWDHIIR [SHU1 C-terminal 12 aa]	0.728 ± 0.016	0.686 ± 0.06
PTFLIPLRLCFV [EMA19 C-terminal 12 aa]	0.329 ± 0.02	0.336 ± 0.0072
RIEMDLALTEPL [ORC6 C-terminal 12 aa]	0.691 ± 0.016	0.685 ± 0.015
RRDVQSRSSMAC [HFL1 C-terminal 12 aa]	0.702 ± 0.02	0.652 ± 0.0097
GTMKVDSWEPVD [ACH1 C-terminal 12 aa]	0.7 ± 0.013	0.6829 ± 0.0049
QVVDTIKDVHRC [YBR197C C-terminal 12 aa]	0.7 ± 0.027	0.706 ± 0.021
MDLEKDRYYDLS [DAS2 C-terminal 12 aa]	0.6908 ± 0.0068	0.68 ± 0.027

Sequence	protein stability index [1]	protein stability index (genetic background: wild type)
EWAEENADNVEW [RPS0A C-terminal 12 aa]	0.7363 ± 0.0068	0.728 ± 0.028
VKKNKPSIESKC [GSH1 C-terminal 12 aa]	0.688 ± 0.0086	0.762 ± 0.03
TNERQLNPWICN [YML090W C-terminal 12 aa]	0.7061 ± 0.0031	0.688 ± 0.031
SGNYFFLDNTGI [RLI1 C-terminal 12 aa]	0.718 ± 0.015	0.754 ± 0.056
YYYKNSYWPSHI [VPS36 C-terminal 12 aa]	0.6935 ± 0.0058	0.701 ± 0.027
NFGVSSSFSFKP [PEX3 C-terminal 12 aa]	0.7032 ± 0.003	0.7154 ± 0.0041
LFQPIIVKPLRS [YHR007C-A C-terminal 12 aa]	0.599 ± 0.016	0.625 ± 0.023
VERNHPVITNIS [YCR087W C-terminal 12 aa]	0.7114 ± 0.0043	0.733 ± 0.062
DTFPRWEGIKSK [PAD1 C-terminal 12 aa]	0.70511 ± 2.5e-05	0.6968 ± 0.0043
FLNIENPENQSE [RCO1 C-terminal 12 aa]	0.687 ± 0.01	0.674 ± 0.018
LYSFNQLEPLQT [GIC2 C-terminal 12 aa]	0.703 ± 0.0092	0.669 ± 0.025
TYNSYTEPEELR [FMP27 C-terminal 12 aa]	0.692 ± 0.025	0.716 ± 0.05
VPLIIDSSGSAN [FTH1 C-terminal 12 aa]	0.718 ± 0.011	0.68 ± 0.0077
TLISGKEDGPTI [SRY1 C-terminal 12 aa]	0.69 ± 0.028	0.701 ± 0.044
FSALVLRGVRGE [YBR196C-B C-terminal 12 aa]	0.698 ± 0.014	0.6769 ± 0.0067
RKSENYLNGRQT [YNL067W-B C-terminal 12 aa]	0.681 ± 0.017	0.721 ± 0.0088
PSAYVLFYERIF [UBP5 C-terminal 12 aa]	0.71 ± 0.015	0.678 ± 0.018
ERGMYRYYSLKA [LUG1 C-terminal 12 aa]	0.623 ± 0.028	0.621 ± 0.015
LNLPWKRKKTTI [YCR101C C-terminal 12 aa]	0.707 ± 0.017	0.686 ± 0.019
EQLGHASKRHKP [RPP1 C-terminal 12 aa]	0.694 ± 0.011	0.689 ± 0.0075
KEKKDKKKKSKD [NOP56 C-terminal 12 aa]	0.686 ± 0.025	0.661 ± 0.022

Sequence	protein stability index [1]	protein stability index (genetic background: wild type)
NEELEKLRPPIT [SIP3 C-terminal 12 aa]	0.7001 ± 0.0018	0.716 ± 0.052
LDYALVEMDKLF [UTP13 C-terminal 12 aa]	0.708 ± 0.033	0.708 ± 0.039
KLMEAIFRIRTI [YKL106C-A C-terminal 12 aa]	0.7668 ± 0.0015	0.152 ± 0.0039
SGWSNFEDFFSR [YKL222C C-terminal 12 aa]	0.744 ± 0.021	0.77 ± 0.019
ATTNISVLQECV [VRL1 C-terminal 12 aa]	0.666 ± 0.018	0.642 ± 0.011
EASEPFKTFKNT [MMS22 C-terminal 12 aa]	0.724 ± 0.0073	0.696 ± 0.0087
IIQQNLKKIGII [GPA1 C-terminal 12 aa]	0.696 ± 0.02	0.195 ± 0.011
AYLQYYSESPEN [DUG1 C-terminal 12 aa]	0.707 ± 0.0053	0.724 ± 0.051
WHKSQLEDMNGY [YHL012W C-terminal 12 aa]	0.683 ± 0.005	0.6568 ± 0.0052
RHHEQSHGQEDH [YLR361C-A C-terminal 12 aa]	0.6985 ± 0.0034	0.6868 ± 0.0011
LADHLMEKYLSI [TFC4 C-terminal 12 aa]	0.701 ± 0.025	0.658 ± 0.01
RNIDVSNLPSLA [STM1 C-terminal 12 aa]	0.691 ± 0.011	0.6785 ± 0.0067
NGANIFITSALT [YGL176C C-terminal 12 aa]	0.691 ± 0.004	0.684 ± 0.016
GRVDFQSTSKFT [AIM24 C-terminal 12 aa]	0.702 ± 0.036	0.7036 ± 0.0061
KLEKLKAEKTRR [YDL085C-A C-terminal 12 aa]	0.669 ± 0.01	0.673 ± 0.031
IHSTKEEKNCNH [YDR095C C-terminal 12 aa]	0.712 ± 0.017	0.683 ± 0.029
NYAPHLSDATTS [MAC1 C-terminal 12 aa]	0.694 ± 0.013	0.7064 ± 0.0029
WSDKLLQIYARC [SAE2 C-terminal 12 aa]	0.5447 ± 0.0049	0.516 ± 0.045
LYHKDADTIFHA [IRC11 C-terminal 12 aa]	0.708 ± 0.014	0.715 ± 0.015
